Laboratory results reported in patent publication US20120225065A1 (published 2012).
Each block holds one binder with its values, some of them ahead of it.

Biological target: Recombinant human IL-21 (human, UniProt Q9HBE4 25-162)
Assay: cell-based or functional assay

Sequence of Recombinant human IL-21 (Q9HBE4 25-162 limits assumed): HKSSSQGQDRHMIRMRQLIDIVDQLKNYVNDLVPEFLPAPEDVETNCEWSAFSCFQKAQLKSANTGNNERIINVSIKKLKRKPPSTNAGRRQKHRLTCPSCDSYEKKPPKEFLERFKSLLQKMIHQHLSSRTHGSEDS

% IgD-low, CD138+ Plasma Cells at antagonist:ligand ratio 0.16:1 (actual 0.22:1): 50.3%
% IgD-low, CD138+ Plasma Cells at antagonist:ligand ratio 0.6:1 (actual 0.9:1): 44.8%
% IgD-low, CD138+ Plasma Cells at antagonist:ligand ratio 2.5:1 (actual 3.6:1): 26.4%
% IgD-low, CD138+ Plasma Cells at antagonist:ligand ratio 10:1 (actual 14.4:1): 15.4%
B1: Human anti-human IL-21 monoclonal antibody clone 366.552.11 (antibody, V domains shown)
VH: QVQLQESGPGLVKPSETLSLTCTVSGGSISSDFWGWIRQPPGKGLEWIGYISSRGSTNYNPSLKRRVTISVDTSRNQFSLKLSSVTAADTAVYYCARSAGVTDFDFWGQGTLVTVSS
VL: DIQMTQSPSSVSASVGDRVTITCRASQGISSWLAWYQHKPGKAPKLLIYVASSLQSGVPSRFSGSGSGTDFTLTISSLQPEDFATYYCQQANSFPLTFGGGTKVEIK

% IgD-low, CD138+ Plasma Cells at antagonist:ligand ratio 0.16:1: 66.7%
% IgD-low, CD138+ Plasma Cells at antagonist:ligand ratio 0.6:1: 54.2%
% IgD-low, CD138+ Plasma Cells at antagonist:ligand ratio 2.5:1: 41.7%
% IgD-low, CD138+ Plasma Cells at antagonist:ligand ratio 10:1: 23.4%
B2: Heterodimeric IL-21 soluble receptor IL-21R/γc-Fc (Fc fusion, not shown: a dimerising Fc or GST)
chain 1: not shown
chain 2: LNTTILTPNGNEDTTADFFLTTMPTDSLSVSTLPLPEVQCFVFNVEYMNCTWNSSSEPQPTNLTLHYWYKNSDNDKVQKCSHYLFSEEITSGCQLQKKEIHLYQTFVVQLQDPREPRRQATQMLKLQNLVIPWAPENLTLHKLSESQLELNWNNRFLNHCLEHLVQYRTDWDHSWTEQSVDYRHKFSLPSVDGQKRYTFRVRSRFNPLCGSAQHWSEWSHPIHWGSNTSKENPFLFALEA

% IgD-low, CD138+ Plasma Cells at antagonist:ligand ratio 0.16:1: 52.1%
% IgD-low, CD138+ Plasma Cells at antagonist:ligand ratio 0.6:1: 41.4%
% IgD-low, CD138+ Plasma Cells at antagonist:ligand ratio 2.5:1: 20.2%
% IgD-low, CD138+ Plasma Cells at antagonist:ligand ratio 10:1: 15.4%
B3: Human anti-human IL-21 monoclonal antibody clone 366.328.10 (antibody, V domains shown)
VH: EVQLVESGGGLVKPGGSLRLSCAASGFIFSSYSMNWVRQAPGKGLEWVSSITSGSYYIHYADSVKGRFTISRDNAKNSLYLQMNSLRAEDTAVYYCVRERGWGYYGMDVWGQGTTVTVSS
VL: AIQLTQSPSSLSASVGDRVTITCRASQDIDSALAWYQQKPGKAPKILIHDASSLESGVPSRFSGSGSGTDFTLTISSLQPEDFATYYCQQFNSYPYTFGQGTKLEIK
